Data set [1] concerns lacZ α-complementing gene in M13mp2 DNA. Briefly: DNA synthetic fidelity, forward mutation assay. It is filed as biochemical. Conditions: light blue and colorless plaques. On the procedure:
(§1) DNA Synthetic Fidelity. The fidelity of the single catalytic subunit and the four subunit polymerase α/primase was measured and compared. Three methods were used to measure a single round of gap filling synthesis within the lacZ α-complementing gene in M13mp2 DNA. See T. A. Kunkel et al. Mol. Cell. Biol. 9:4447 (1989). In all three assays, a gapped, double-stranded M13mp2 DNA is constructed which contains a single-stranded gap as the mutation target. The three assays are: (A) forward mutation assay, (B) opal codon reversion assay, and (C) assay for −1 base frame-shift.
(§2) The DNA synthetic mutational frequency and the error rate of the two forms of DNA polymerase α measured by these three methods are summarized in Table III. […] The DNA synthetic fidelity values obtained are also in agreement with the values previously determined for the four subunit polymerase α.

A short description of data set [2]: Thermostability: preincubation at 37° C. before assaying polymerase activity. Format: physicochemical. The method, then:
Thermosensitivity. The thermostability of the two forms of polymerase α was also compared; this was done by preincubation at 37° C. for various times before assaying polymerase activity. […] (data not shown). These decreases in polymerase activity was not due to proteolysis of the polymerase protein.

Data set [3] relates to lacZ α-complementing gene in M13mp2 DNA. Description: DNA synthetic fidelity, minus-one frame-shift reversion assay. Format: biochemical. The method, then: as §1, §2
Another data set relates to oligo(dT)12: poly(dA)290. Description: Km for primer terminus. Format: biochemical. As to conditions: oligo(dT)12: poly(dA)290, 2 mM MgCl2, 50 μM dTTP. The method, then: (§3) The standard assay for DNA polymerase α with gapped DNA was performed according to P. A. Fisher and D. Korn, J. Biol. Chem 252:6528 1977). Reactions were performed using optimally gapped salmon sperm DNA in 20 mM Tris.HCl, pH 8.0, 2 mM β-mercaptoethanol (“βME”), 200 μg/ml BSA, 10 mM MgCl2, 50 μM dNTP's with [α-^32P]dATP as the label. One unit of DNA polymerase is defined as the amount of polymerase that incorporates 1 nmole of labeled dNTP into acid-insoluble DNA at 37° C. in 60 min. […] All Kinetic parameters were calculated from Lineweaver-Burk plots by the method of least squares. Km was calculated of the basis of 3′-OH primer termini.

The test system of data set [4] is matched 24 mer or mismatched 29 mer annealed to M13mp18 single stranded DNA. Briefly: Proofreading exonuclease assay on primed M13mp18. It is filed as biochemical. As to conditions: up to 30 minutes at 37° C. The method, then:
Proofreading exonuclease activity of the recombinant single subunit poymerase α was assayed with a singly primed M13mp18 template (SEQ ID NO:5), primed either with a matched 24 mer (SEQ ID NO:4) (FIG. 8B) or a mismatched 29 mer (SEQ ID NO:2) (FIG. 8A), each ^32P-labeled at the 5′ end by T4 polynucleotide kinase. The mismatched 29 mer (SEQ ID NO:2) contains 9 mismatched T's on the 3′ terminus. Correct proofreading of this 29 mer (SEQ ID NO:2) annealed to M13mp18 (SEQ ID NO:3) would produce a 20 mer in the absence of deoxynucleotide triphosphates (dNTPs).
To perform the assay, two oligonucleotides, the universal primer, a 24 mer (matched primer) and RD29 mer (mismatched primer), were 5′-end labeled with ^32P-ATP and annealed to M13mp18 single stranded template. 0.1 pmole of this primed M13 was incubated in 20 mM Tris.HCl, pH 7.5, 10 mM MgCl2, 20 mM KCl and 2 mM dithiothreitol at 37° C. in the presence of polymerase in a final volume of 12 μl. Aliquots of 3 μl each were removed at 0, 2.5, 10 and 30 minutes into an equal volume of deionized formamide containing 1 mM EDTA, 0.1% xylene cyanol and 0.1% bromophenol blue and placed on ice. After heating at 95° C. for 5 minutes, one-half of the sample was loaded onto an 18% polyacrylamide, 7 M urea, Tris-borate-EDTA gel. […]

Data set [5] deals with optimally gapped salmon sperm DNA, dNTP's. Description: Kinetic parameters of DNA polymerase α on gapped DNA (Lineweaver-Burk). It is filed as biochemical. As to conditions: for Km: gapped salmon sperm DNA.
Text: Characterization of Affinity. The four subunit-DNA polymerase α/primase complex was purified from human KB cells as described T. Wang et al., J. Biol. Chem. 259:1854 (1984) and used for comparison to the single polypeptide recombinant polymerase α for their respective affinities for dNTP, primer-terminus, and gapped DNA. Prior to the comparison, both the immunopurified recombinant single subunit-polymerase α and the four subunit-polymerase α/primase complex were stored in buffer containing 30% sucrose, 20% ethylene glycol, 50 mM Tris HCL, pH 8.6, 1 mM βME, 1 mM EDTA at −80° C. or stored on packed ice at 4° C.
as §3
The rate of catalysis of these two forms was also measured. The Kcat values determined for the two forms of polymerase α are of a similar order of magnitude.

For data set [6], the system named is lacZ α-complementing gene in M13mp2 DNA. Description: DNA synthetic fidelity, base-substitution (opal codon) reversion assay. Format: biochemical. On the procedure:
as §1, §2

Read-outs that look alike come from different tables or passages of the source.

What is called Km is the concentration of substrate that gives half-maximal velocity.

B1: Single subunit recombinant Pol α: recombinant human DNA polymerase α catalytic polypeptide (180 kDa) immunopurified from AcHDPα infected Sf9 cells (protein)
chain: MAPVHGDDSLSDSGSFVSSRARREKKSKKGRQEALERLKKAKAGEKYKYEVEDFTGVYEEVDEEQYSKLVQARQDDDWIVDDDGIGYVEDGREIFDDDLEDDALDADEKGKDGKARNKDKRNVKKLAVTKPNNIKSMFIACAGKKTADKAVDLSKDGLLGDILQDLNTETPQITPPPVMILKKKRSIGASPNPFSVHTATAVPSGKIASPVSRKEPPLTPVPLKRAEFAGDDVQVESTEEEQESGAMEFEDGDFDEPMEVEEVDLEPMAAKAWDKESEPAEEVKQEADSGKGTVSYLGSFLPDVSCWDIDQEGDSSFSVQEVQVDSSHLPLVKGADEEQVFHFYWLDAYEDQYNQPGVVFLFGKVWIESAETHVSCCVMVKNIERTLYFLPREMKIDLNTGKETGTPISMKDVYEEFDEKIATKYKIMKFKSKPVEKNYAFEIPDVPEKSEYLEVKYSAEMPQLPQDLKGETFSHVFGTNTSSLELFLMNRKIKGPCWLEVKSPQLLNQPVSWCKVEAMALKPDLVNVIKDVSPPPLVVMAFSMKTMQNAKNHQNEIIAMAALVHHSFALDKAAPKPPFQSHFCVVSKPKDCIFPYAFKEVIEKKNVKVEVAATERTLLGFFLAKVHKIDPDIIVGHNIYGFELEVLLQRINVCKAPHWSKIGRLKRSNMPKLGGRSGFGERNATCGRMICDVEISAKELIRCKSYHLSELVQQILKTERVVIPMENIQNMYSESSQLLYLLEHTWKDAKFILQIMCELNVLPLALQITNIAGNIMSRTLMGGRSERNEFLLLHAFYENNYIVPDKQIFRKPQQKLGDEDEEIDGDTNKYKKGRKKAAYAGGLVLDPKVGFYDKFILLLDFNSLYPSIIQEFNICFTTVQRVASEAQKVTEDGEQEQIPELPDPSLEMGILPREIRKLVERRKQVKQLMKQQDLNPDLILQYDIRQKALKLTANSMYGCLGFSYSRFYAKPLAALVTYKGREILMHTKEMVQKMNLEVIYGDTDSIMINTNSTNLEEVFKLGNKVKSEVNKLYKLLEIDIDGVFKSLLLLKKKKYAALVVEPTSDGNYVTKQELKGLDIVRRDWCDLAKDTGNFVIGQILSDQSRDTIVENIQKRLIEIGENVLNGSVPVSQFEINKALTKDPQDYPDKKSLPHVHVALWINSQGGRKVKAGDTVSYVICQDGSNLTASQRAYAPEQLQKQDNLTIDTQYYLAQQIHPVVARICEPIDGIDAVLIATWLGLDPTQFRVHHYHKDEENDALLGGPAQLTDEEKYRDCERFKCPCPTCGTENIYDNVFDGSGTDMEPSLYRCSNIDCKASPLTFTVQLSNKLIMDIRRFIKKYYDGWLICEEPTCRNRTRHLPLQFSRTGPLCPACMKATLQPEYSDKSLYTQLCFYRYIFDAECALEKLTTDHEKDKLKKQFFTPKVLQDYRKLKNTAEQFLSRSGYSEVNLSKLFAGCAVKS
In the case of B1, the Mutant frequency is recorded as 300 ×10^−4 in data set [1], 170 ×10^−5 in data set [3] (blue plaques) and 370 ×10^−6 in data set [6] (blue plaques). In addition, the “Thermostability, % activity after 30 min at 37° C.” value in data set [2] was 68%. The values for the Error rate in data set [3] and in data set [6] were 1/1800 and 1/4900, respectively. For the same molecule, the Km with oligo(dT)12: poly(dA)290 was found to be 0.4 µM; in data set [5] (10 mM MgCl2, pH 8.0, read-out: Km (dNTP)) it was 1.2 µM; in data set [5] (read-out: Km (DNA in nucleotide)), 190 µM. In data set [4], the “3′-5′ exonuclease activity on matched and mismatched primer-template” value is recorded as “no apparent 3′-5′ exonuclease was detected”. The same molecule showed a Kcat in data set [5] of 1.6 s⁻¹.

The values are drawn from patent publication US6670161B1, “Compositions and methods for template-dependent enzymatic synthesis of nucleic acid” (The Board of Trustees of the Leland Stanford Jr. University, priority 1991, dated 2003).
